{
  "source": "patent US20090170751A1",
  "target": "Plasma fibronectin, affinity purified from human plasma (human) (UniProt P02751)",
  "sequence (P02751 32-2477)": "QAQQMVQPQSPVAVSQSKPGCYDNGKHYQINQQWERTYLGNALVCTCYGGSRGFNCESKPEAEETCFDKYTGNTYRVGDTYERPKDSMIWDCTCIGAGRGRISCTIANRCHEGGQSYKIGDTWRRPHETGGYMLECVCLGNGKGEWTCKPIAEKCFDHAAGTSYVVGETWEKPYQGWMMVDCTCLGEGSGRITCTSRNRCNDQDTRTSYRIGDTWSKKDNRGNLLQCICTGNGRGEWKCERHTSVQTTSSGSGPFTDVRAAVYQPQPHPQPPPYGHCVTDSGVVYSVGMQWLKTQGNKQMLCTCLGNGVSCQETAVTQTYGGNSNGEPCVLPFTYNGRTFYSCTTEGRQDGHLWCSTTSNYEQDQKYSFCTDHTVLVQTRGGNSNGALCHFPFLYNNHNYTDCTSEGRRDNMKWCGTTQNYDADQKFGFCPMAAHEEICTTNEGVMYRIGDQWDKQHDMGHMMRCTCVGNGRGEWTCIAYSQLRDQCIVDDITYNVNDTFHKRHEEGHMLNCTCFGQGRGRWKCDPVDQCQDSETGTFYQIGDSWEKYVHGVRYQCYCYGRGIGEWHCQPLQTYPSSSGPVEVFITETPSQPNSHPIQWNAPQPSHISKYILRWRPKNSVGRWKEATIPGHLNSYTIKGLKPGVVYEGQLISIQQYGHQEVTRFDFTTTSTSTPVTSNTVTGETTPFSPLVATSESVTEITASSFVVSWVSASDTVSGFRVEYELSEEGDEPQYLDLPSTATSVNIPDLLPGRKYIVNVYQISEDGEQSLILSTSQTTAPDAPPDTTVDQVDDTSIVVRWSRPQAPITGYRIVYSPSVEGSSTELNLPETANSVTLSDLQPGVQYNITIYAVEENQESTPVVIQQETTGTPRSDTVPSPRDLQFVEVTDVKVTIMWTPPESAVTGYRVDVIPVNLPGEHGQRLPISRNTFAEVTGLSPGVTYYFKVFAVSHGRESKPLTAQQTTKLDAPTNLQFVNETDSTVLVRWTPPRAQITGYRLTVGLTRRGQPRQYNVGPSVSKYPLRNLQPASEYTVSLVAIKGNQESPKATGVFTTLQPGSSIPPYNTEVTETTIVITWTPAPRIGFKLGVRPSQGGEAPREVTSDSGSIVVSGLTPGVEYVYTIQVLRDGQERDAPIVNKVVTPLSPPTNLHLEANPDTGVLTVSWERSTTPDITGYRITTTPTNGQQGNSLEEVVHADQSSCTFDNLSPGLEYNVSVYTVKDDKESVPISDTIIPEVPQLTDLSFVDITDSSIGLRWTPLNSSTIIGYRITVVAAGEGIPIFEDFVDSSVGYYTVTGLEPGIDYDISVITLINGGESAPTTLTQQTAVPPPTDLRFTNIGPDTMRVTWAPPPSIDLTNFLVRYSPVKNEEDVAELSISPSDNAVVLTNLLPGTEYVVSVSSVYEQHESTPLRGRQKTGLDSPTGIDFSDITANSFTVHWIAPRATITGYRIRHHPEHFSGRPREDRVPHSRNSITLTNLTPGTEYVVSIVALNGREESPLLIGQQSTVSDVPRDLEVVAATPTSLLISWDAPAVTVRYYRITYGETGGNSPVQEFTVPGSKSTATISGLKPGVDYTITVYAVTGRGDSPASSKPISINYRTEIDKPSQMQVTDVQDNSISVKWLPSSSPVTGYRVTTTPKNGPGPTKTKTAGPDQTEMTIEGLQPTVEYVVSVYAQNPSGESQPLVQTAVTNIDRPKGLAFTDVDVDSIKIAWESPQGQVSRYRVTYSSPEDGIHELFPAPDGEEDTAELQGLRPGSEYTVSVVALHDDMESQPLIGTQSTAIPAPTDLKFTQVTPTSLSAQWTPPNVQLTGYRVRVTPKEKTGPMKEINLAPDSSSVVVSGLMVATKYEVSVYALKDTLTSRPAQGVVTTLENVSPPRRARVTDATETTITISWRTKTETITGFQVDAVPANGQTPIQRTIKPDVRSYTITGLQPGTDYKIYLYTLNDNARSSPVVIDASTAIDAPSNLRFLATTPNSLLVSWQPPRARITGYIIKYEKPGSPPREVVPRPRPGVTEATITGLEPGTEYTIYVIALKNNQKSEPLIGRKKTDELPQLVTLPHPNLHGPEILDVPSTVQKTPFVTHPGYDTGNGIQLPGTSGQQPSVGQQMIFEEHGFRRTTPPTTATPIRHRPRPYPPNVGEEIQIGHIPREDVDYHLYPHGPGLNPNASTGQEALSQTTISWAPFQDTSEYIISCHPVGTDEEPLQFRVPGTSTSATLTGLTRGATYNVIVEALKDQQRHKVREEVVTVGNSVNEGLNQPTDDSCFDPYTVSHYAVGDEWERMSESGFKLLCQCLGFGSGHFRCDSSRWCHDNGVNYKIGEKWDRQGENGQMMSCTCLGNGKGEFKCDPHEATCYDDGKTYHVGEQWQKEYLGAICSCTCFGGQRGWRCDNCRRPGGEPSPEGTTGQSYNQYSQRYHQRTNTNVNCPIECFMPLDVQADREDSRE",
  "experiment": "cell-based or functional assay",
  "data": [
    {"substance": "Recombinant Anastellin, P02751 631-703", "values": [
      {"measurement": "fibronectin aggregation, increase in absorbance at 600 nm", "value": "> 20", "unit": "µM"}
    ]}
  ]
}
